Assay results from article PMC7501309, “Structure and mechanism of a dehydratase/decarboxylase enzyme couple involved in polyketide β-methyl branch incorporation” (Scientific Reports, 2020).

B1: PksI, bacillaene synthase decarboxylase (wild type) (enzyme, Bacillus subtilis 168)
chain: MTHSVVELIEIESAIIQVKMQDRTHKNAFSQELTDDLIQAFEYIRQNPKYKAVILTGYDNYFASGGTQEGLLRIQQGLTKFTDDNLYSLALDCEIPVIAAMQGHGIGGGFVMGLFADIVILSRESVYTANFMKYGFTPGMGATFIVPKKLGFSLAQEILLNAGSYRGADLEKRGVPFKVLPRAEVLDYAVELAQELAEKPRNSLVTLKDHLVAPLRDQLPRVIEQELMMHEKTFHHEEVKSRIKGLYGN
notes: PksI of Bacillus subtilis 168, amplified from genomic DNA and cloned into pOPINF; the crystal models hold residues 1-249; The His tag is 3C protease cleavable (pOPINF); also called WT PksI; source: E. coli BL21(DE3), purified (HisTrap, Superdex 200 SEC)
B2: PksH, bacillaene synthase dehydratase (wild type) (enzyme, Bacillus subtilis 168, UniProt P40805 1-259, looked up)
chain: MDLVTYQTIKVRFQASVCYITFHRPEANNTINDTLIEECLQVLNQCETSTVTVVVLEGLPEVFCFGADFQEIYQEMKRGRKQASSQEPLYDLWMKLQTGPYVTISHVRGKVNAGGLGFVSATDIAIADQTASFSLSELLFGLYPACVLPFLIRRIGRQKAHYMTLMTKPISVQEASEWGLIDAFDAESDVLLRKHLLRLRRLNKKGIAHYKQFMSSLDHQVSRAKATALTANQDMFSDPQNQMGIIRYVETGQFPWEDQ
notes: PksH of Bacillus subtilis 168, amplified from genomic DNA and cloned into pET28a (NdeI/XhoI); The His tag is thrombin cleavable (pET28a); also called WT PksH; source: E. coli BL21(DE3), purified (HisTrap, Superdex 200 SEC)

Biological target: the molecule itself
Assay: SEC; analytical Superdex 200 10/60; 100 µl at 0.5 mg/ml; 50 mM Tris-HCl, 150 mM NaCl, 5% glycerol, pH 7.5 (legend: 20 mM Tris-HCl, 150 mM NaCl, pH 7.5); elution compared with standards

| Protein | stoichiometry N |
| --- | --- |
| B1 | 3 |
| B2 | 3 |
